EC50 data for four molecules are collected here from patent publication US20250059292A1 (JCR PHARMACEUTICALS, published 2025).

Assay [1] deals with T1, mouse transferrin receptor extracellular domain (position 87 to position 763 of SEQ ID NO: 39) (mouse, UniProt Q62351 87-763).
T1 construct: Coated on the ELISA plate at 10 ug/mL; also called mouse TfR; mTfR
The assay is described as follows: ELISA: mouse TfR extracellular domain coated on the plate, detected with anti-I2S monoclonal antibody and HRP-labeled secondary antibody. On the procedure:
The recombinant proteins of mscFv3-GS3-hI2S obtained by an ordinary method using CHO cells were measured for their binding activity to mouse transferrin receptor by the ELISA method. The ELISA method was generally performed in the following manner. To each well of a 96-well microtiter plate (Nunc), 100 μL of a mouse transferrin receptor extracellular domain having an amino acid sequence from position 87 to position 763 of an amino acid sequence represented by SEQ ID NO: 39 diluted with 0.05 M bicarbonate buffer (pH 9.6) to a concentration of 10 μg/mL was added, and the plate was allowed to stand at room temperature for at least 1 hour to adsorb the antibody to the plate. Then, 300 μL of TBS containing 1% BSA and 0.05% Tween20 was added to each well, and the plate was allowed to stand at room temperature for 1 hour. Each well was washed three times with TBS containing 0.05% Tween20 (TBS-T). Then, a solution containing mscFv3-GS3-hI2S was diluted using TBS containing 0.1% BSA and 0.05% Tween20 to a concentration of mscFv3-GS3-hI2S of 200, 66.7, 22.2, 7.41, 2.47, 0.82, and 0.27 nM, and 100 μL of the diluted solution was added to each well. The plate was allowed to stand at room temperature for at least 1 hour. […] Then, 100 μL of a stop solution (1 N hydrochloride) was added to each well, and the absorbance at 450 nm for each well was measured using a plate reader (MOLECULAR DEVICES).
A general note: ELISA stands for enzyme-linked immunosorbent assay.

For assay [2], the target named is T1, mouse transferrin receptor …. Nature of the assay: ELISA: mouse TfR extracellular domain coated on the plate, detected with anti-hI2S monoclonal antibody and HRP-labeled secondary antibody. Here is the method: The binding activities of the obtained three types of proteins, mscFv-GS3-hI2S, mscFv2-GS3-hI2S, and hI2S-mscFv2, to the mouse TfR receptor were measured by the ELISA method. The ELISA method was generally performed in the following manner. To each well of a 96-well microtiter plate (Nunc), 100 μL of a mouse transferrin receptor extracellular domain having an amino acid sequence from position 87 to position 763 of an amino acid sequence represented by SEQ ID NO: 39 diluted with 0.05 M bicarbonate buffer (pH 9.6) to a concentration of 10 μg/mL was added, and the plate was allowed to stand at room temperature for at least 1 hour to adsorb the antibody to the plate. Then, 300 μL of TBS containing 1% BSA and 0.05% Tween20 was added to each well, and the plate was allowed to stand at room temperature for 1 hour. Each well was washed three times with TBS containing 0.05% Tween20 (TBS-T), followed by dilution with TBS containing 0.1% BSA and 0.05% Tween20 to 300, 100, 33.33, 11.11, 3.70, 1.23, 0.41, or 0.14 nM for mscFv-GS3-hI2S, 600, 200, 66.67, 22.22, 7.41, 2.47, 0.82, or 0.27 nM for mscFv2-GS3-hI2S, and 1200, 400, 133.33, 44.44, 14.81, 4.94, 1.65, or 0.55 nM for hI2S-mscFv2, and 100 μL of each thereof was added to each well. The plate was allowed to stand at room temperature for at least 1 hour. After the plate was washed three times with TBS-T, anti-hI2S monoclonal antibodies were diluted to 0.5 μg/mL with TBS containing 0.1% BSA and 0.05% Tween20, 100 μL thereof was added to each well, and the plate was allowed to stand at room temperature for at least 1 hour. The plate was washed three times with the TBS-T, then 100 μL of an HRP-labeled anti-human IgG polyclonal antibody (Bethyl) solution diluted to 50 ng/mL with TBS containing 0.1% BSA and 0.05% Tween20 was added to each well, and the plate was allowed to stand at room temperature for at least 1 hour. […] Then, 100 μL of a stop solution (1 N hydrochloride) was added to each well, and the absorbance at 450 nm for each well was measured using a plate reader (SpectraMax iD3, MOLECULAR DEVICES).

Where a chain is given by its changes, count along the chain named.

T1 sequence (Q62351 87-763): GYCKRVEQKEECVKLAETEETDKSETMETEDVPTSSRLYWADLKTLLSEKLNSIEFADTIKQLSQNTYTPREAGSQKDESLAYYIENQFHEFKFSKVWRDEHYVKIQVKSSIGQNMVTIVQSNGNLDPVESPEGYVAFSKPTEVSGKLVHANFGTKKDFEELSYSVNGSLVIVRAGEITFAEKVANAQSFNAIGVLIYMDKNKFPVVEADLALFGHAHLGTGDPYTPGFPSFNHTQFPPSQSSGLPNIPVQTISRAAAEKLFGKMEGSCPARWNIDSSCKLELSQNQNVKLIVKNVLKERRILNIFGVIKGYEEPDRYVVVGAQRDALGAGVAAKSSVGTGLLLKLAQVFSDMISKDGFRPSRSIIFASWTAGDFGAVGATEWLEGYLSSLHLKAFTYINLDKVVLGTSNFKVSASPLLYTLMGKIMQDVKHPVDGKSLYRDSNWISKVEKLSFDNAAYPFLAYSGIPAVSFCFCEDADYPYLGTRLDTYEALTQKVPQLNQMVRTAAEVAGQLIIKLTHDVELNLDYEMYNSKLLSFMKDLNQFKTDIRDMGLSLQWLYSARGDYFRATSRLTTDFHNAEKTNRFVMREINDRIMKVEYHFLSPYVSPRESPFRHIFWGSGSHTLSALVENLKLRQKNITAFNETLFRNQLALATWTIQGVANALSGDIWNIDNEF

B1: mscFv3-GS3-hI2S (conjugate in which hI2S is bound to the C-terminus of mouse anti-mouse transferrin receptor single chain antibody mscFv 3 via the linker of … (scFv)
chain: EVQLVESGGGLVQPGNSLTLSCVASGFTFSNYGMHWIRQAPKKGLEWIAMIAYDSSKMNYADTVKGRFTISRDNSKNTLYLEMNSLRSEDTAMYYCAVPTAHYVVDVWGQGVSVTVSSGGGGSGGGGSGGGGSDIQMTQSPASLSASLEEIVTITCQASQDIGNWLAWYQQKPGKSPQLLIYGATSLADGVPSRFSGSRSGTQFSLKISRVQVEDIGIYYCLQAYNTPWTFGGGTKLELKRGGGGSGGGGSGGGGSSETQANSTTDALNVLLIIVDDLRPSLGCYGDKLVRSPNIDQLASHSLLFQNAFAQQAVCAPSRVSFLTGRRPDTTRLYDFNSYWRVHAGNFSTIPQYFKENGYVTMSVGKVFHPGISSNHTDDSPYSWSFPPYHPSSEKYENTKTCRGPDGELHANLLCPVDVLDVPEGTLPDKQSTEQAIQLLEKMKTSASPFFLAVGYHKPHIPFRYPKEFQKLYPLENITLAPDPEVPDGLPPVAYNPWMDIRQREDVQALNISVPYGPIPVDFQRKIRQSYFASVSYLDTQVGRLLSALDDLQLANSTIIAFTSDHGWALGEHGEWAKYSNFDVATHVPLIFYVPGRTASLPEAGEKLFPYLDPFDSASQLMEPGRQSMDLVELVSLFPTLAGLAGLQVPPRCPVPSFHVELCREGKNLLKHFRFRDLEEDPYLPGNPRELIAYSQYPRPSDIPQWNSDKPSLKDIKIMGYSIRTIDYRYTVWVGFNPDEFLANFSDIHAGELYFVDSDPLQDHNMYNDSQGGDLFQLLMP
notes: scFv-enzyme fusion, recombinant from CHO cells; also called mscFv 3-hI2S conjugate
As usually defined, the EC50 is the concentration at which the effect is half-maximal. B1 had an EC50 in assay [1] of 4.4 nM.

B2: mscFv-GS3-hI2S (conjugate in which human iduronate-2-sulfatase is bound to the C-terminus of a mouse anti-mouse transferrin receptor single chain antibody via … (scFv)
chain: B1 chain with A52Y, A101S
notes: scFv-enzyme fusion, expressed as a recombinant protein in CHO cells and collected from the culture supernatant; also called mouse anti-mTfRscFv antibody-hI2S conjugate
Regarding B2, the EC50 in assay [2] was 2.4 nM.

B3: mscFv2-GS3-hI2S (conjugate in which hI2S is bound to the C-terminus of mouse anti-mTfRscFv antibody 2 via the linker of SEQ ID NO: 4) (scFv)
chain: B1 chain with Y182A, Y225A
notes: scFv-enzyme fusion, recombinant from CHO cells; also called mouse anti-mTfRscFv antibody 2-hI2S conjugate
As for B3, the EC50 in assay [2] came out at 13.2 nM.

B4: hI2S-mscFv2 (conjugate in which mouse anti-mTfRscFv antibody 2 is bound to the C-terminus of hI2S) (scFv)
chain: SETQANSTTDALNVLLIIVDDLRPSLGCYGDKLVRSPNIDQLASHSLLFQNAFAQQAVCAPSRVSFLTGRRPDTTRLYDFNSYWRVHAGNFSTIPQYFKENGYVTMSVGKVFHPGISSNHTDDSPYSWSFPPYHPSSEKYENTKTCRGPDGELHANLLCPVDVLDVPEGTLPDKQSTEQAIQLLEKMKTSASPFFLAVGYHKPHIPFRYPKEFQKLYPLENITLAPDPEVPDGLPPVAYNPWMDIRQREDVQALNISVPYGPIPVDFQRKIRQSYFASVSYLDTQVGRLLSALDDLQLANSTIIAFTSDHGWALGEHGEWAKYSNFDVATHVPLIFYVPGRTASLPEAGEKLFPYLDPFDSASQLMEPGRQSMDLVELVSLFPTLAGLAGLQVPPRCPVPSFHVELCREGKNLLKHFRFRDLEEDPYLPGNPRELIAYSQYPRPSDIPQWNSDKPSLKDIKIMGYSIRTIDYRYTVWVGFNPDEFLANFSDIHAGELYFVDSDPLQDHNMYNDSQGGDLFQLLMPEVQLVESGGGLVQPGNSLTLSCVASGFTFSNYGMHWIRQAPKKGLEWIAMIAYDSSKMNYADTVKGRFTISRDNSKNTLYLEMNSLRSEDTAMYYCAVPTAHYVVDVWGQGVSVTVSSGGGGSGGGGSGGGGSDIQMTQSPASLSASLEEIVTITCQASQDIGNWLAWYQQKPGKSPQLLIAGATSLADGVPSRFSGSRSGTQFSLKISRVQVEDIGIYYCLQAANTPWTFGGGTKLELKR
notes: Enzyme-scFv fusion, recombinant from CHO cells
In the case of B4, the EC50 in assay [2] came out at 96.7 nM.
